According to patent US5773647A, “Compounds and compositions for delivering active agents” (Emisphere Technologies, Inc., priority 1997, dated 1998):
Where two headings read alike, the source gives them in different places.

Legend:
[1] = rat, in vivo, 50 mg/kg
Protocol: (§1) An intracolonic dosing composition containing 50 mg/kg of carrier 9 and 250 μg/kg of interferon in 50% propylene glycol was prepared. Rats were administered the dosing composition by intracolonic instillation.
(§2) Rats were administered, orally and by intracolonic instillation, dosing solutions of 1 mg/kg of interferon and no carrier.

[2] = In vivo interferon delivery (ELISA for human interferon); conditions: 1 mg/kg interferon, no carrier
Protocol: as §1, §2

For `O=C(O)CCCc1ccc(NC(=O)COc2ccccc2)cc1` [Compound 9], the “Mean peak serum interferon concentration” value [1] was 2611±695.
For interferon, the “Mean peak serum interferon concentration” value ([2]; intracolonic (IC)) was 79±100 and the “Mean peak serum interferon concentration” value ([2]; oral (PO)) was 1951±1857.
